Assays:
Experiment in all cases: SPR
[1] = biological target: 20.1_VH/WO2_VL rFab (mouse | human)
[2] = biological target: WO2 (Y58>A) mutant rFab (mouse | human)
[3] = biological target: WO2_VH/20.1_VL rFab (mouse | human)
[4] = biological target: WO2_VH/gWO2_VL rFab (mouse | human)
[5] = biological target: gWO2 rFab (mouse | human)
[6] = biological target: gWO2_VH/WO2_VL rFab (mouse | human)
[7] = biological target: biotinylated Aβ1–16 peptide (human)
[8] = biological target: biotinylated Aβ1–42 high molecular weight (HMW) soluble oligomers (human)

Kd [1] [nM] | koff [1] [s⁻¹] | kon [1] [M⁻¹ s⁻¹] | Kd [2] [nM] | Kd [3] [nM] | koff [3] [s⁻¹] | kon [3] [M⁻¹ s⁻¹] | Kd [4] [nM] | koff [4] [s⁻¹] | kon [4] [M⁻¹ s⁻¹] | Kd [5] [nM] | Kd [6] [nM] | koff [6] [s⁻¹] | kon [6] [M⁻¹ s⁻¹] | Kd [7] [nM] | koff [7] [s⁻¹] | Kd [8] [nM] | koff [8] [s⁻¹] | kon [7] [M⁻¹ s⁻¹] | kon [8] [M⁻¹ s⁻¹] | Molecule
2.8 | 0.0015 | 540000 | 4900 | 41 | 0.0614 | 1.5e+06 | 349 | 0.145 | 390000 | 21300 | 79 | 0.026 | 330000 |  |  |  |  |  |  | Aβ1–16-Im7 fusion protein (domain or fragment)
 |  |  |  |  |  |  |  |  |  |  |  |  |  | 154 | 0.00974 | 89.2 | 0.00546 |  |  | WO2/10D5_HCDR3 rFab (Fab, V domains shown) VH: VTLKESGPGLLKPSQTLSLTCSFSGFSIRTSKVGVSWIRQPSGKGLEWLAHIYWDDDKRYNPSLESRLTISKDTSRDMVFMKITSVDTADTATYYCVRRPITPVLVDAMDYWGQGTTLTVSS VL: DVLMTQTPLSLPVNLGEQASISCRSSQSIVHSNGHTYLEWYLQRPGQSPKLLIYQVSTRFSGVPDRFSGSGSGTDFTLRISRVEAEDLGVYYCFQASLVPLTFGAGTKLELK
 |  |  |  |  |  |  |  |  |  |  |  |  |  | 262 | 0.0449 | 135 | 0.0261 | 171000 | 133000 | WO2/12A11_HCDR3 rFab (Fab, V domains shown) VH: VTLKESGPGLLKPSQTLSLTCSFSGFSIRTSKVGVSWIRQPSGKGLEWLAHIYWDDDKRYNPSLESRLTISKDTSRDMVFMKITSVDTADTATYYCARRTTTADYFAYWGQGTTLTVSS VL: DVLMTQTPLSLPVNLGEQASISCRSSQSIVHSNGHTYLEWYLQRPGQSPKLLIYQVSTRFSGVPDRFSGSGSGTDFTLRISRVEAEDLGVYYCFQASLVPLTFGAGTKLELK
